The values that follow come from publication PMC4754349, “Tripartite assembly of RND multidrug efflux pumps” (Nature Communications, 2016).

B2: OprM reconstituted into nanodiscs (OprM–ND) (natural protein)
chain: CSLIPDYQRPEAPVAAAYPQGQAYGQNTGAAAVPAADIGWREFFRDPQLQQLIGVALENNRDLRVAALNVEAFRAQYRIQRADLFPRIGVDGSGTRQRLPGDLSTTGSPAISSQYGVTLGTTAWELDLFGRLRSLRDQALEQYLATEQAQRSAQTTLVASVATAYLTLKADQAQLQLTKDTLGTYQKSFDLTQRSYDVGVASALDLRQAQTAVEGARATLAQYTRLVAQDQNALVLLLGSGIPANLPQGLGLDQTLLTEVPAGLPSDLLQRRPDILEAEHQLMAANASIGAARAAFFPSISLTANAGTMSRQLSGLFDAGSGSWLFQPSINLPIFTAGSLRASLDYAKIQKDINVAQYEKAIQTAFQEVADGLAARGTFTEQLQAQRDLVKASDEYYQLADKRYRTGVDNYLTLLDAQRSLFTAQQQLITDRLNQLTSEVNLYKALGGGWNQQTVTQQQTAKKEDPQA
notes: OprM, outer membrane factor of Pseudomonas aeruginosa; called native; One trimer in each nanodisc (POPC, MSP1D1); also called OMF; source: E. coli C43ΔacrB, purified (HisTrap HP, gel filtration Superose 6), reconstituted into POPC/MSP1D1 nanodiscs
B3: MexB reconstituted into nanodiscs (MexB–ND) (natural protein)
chain: MSKFFIDRPIFAWVIALVIMLAGGLSILSLPVNQYPAIAPPAIAVQVSYPGASAETVQDTVVQVIEQQMNGIDNLRYISSESNSDGSMTITVTFEQGTDPDIAQVQVQNKLQLATPLLPQEVQRQGIRVTKAVKNFLMVVGVVSTDGSMTKEDLSNYIVSNIQDPLSRTKGVGDFQVFGSQYSMRIWLDPAKLNSYQLTPGDVSSAIQAQNVQISSGQLGGLPAVKGQQLNATIIGKTRLQTAEQFENILLKVNPDGSQVRLKDVADVGLGGQDYSINAQFNGSPASGIAIKLATGANALDTAKAIRQTIANLEPFMPQGMKVVYPYDTTPVVSASIHEVVKTLGEAILLVFLVMYLFLQNFRATLIPTIAVPVVLLGTFGVLAAFGFSINTLTMFGMVLAIGLLVDDAIVVVENVERVMAEEGLSPREAARKSMGQIQGALVGIAMVLSAVFLPMAFFGGSTGVIYRQFSITIVSAMALSVIVALILTPALCATMLKPIEKGDHGEHKGGFFGWFNRMFLSTTHGYERGVASILKHRAPYLLIYVVIVAGMIWMFTRIPTAFLPDEDQGVLFAQVQTPPGSSAERTQVVVDSMREYLLEKESSSVSSVFTVTGFNFAGRGQSSGMAFIMLKPWEERPGGENSVFELAKRAQMHFFSFKDAMVFAFAPPSVLELGNATGFDLFLQDQAGVGHEVLLQARNKFLMLAAQNPALQRVRPNGMSDEPQYKLEIDDEKASALGVSLADINSTVSIAWGSSYVNDFIDRGRVKRVYLQGRPDARMNPDDLSKWYVRNDKGEMVPFNAFATGKWEYGSPKLERYNGVPAMEILGEPAPGLSSGDAMAAVEEIVKQLPKGVGYSWTGLSYEERLSGSQAPALYALSLLVVFLCLAALYESWSIPFSVMLVVPLGVIGALLATSMRGLSNDVFFQVGLLTTIGLSAKNAILIVEFAKELHEQGKGIVEAAIEACRMRLRPIVMTSLAFILGVVPLAISTGAGSGSQHAIGTGVIGGMVTATVLAIFWVPLFYVAVSTLFKDEASKQQASVEKGQ
notes: MexB, inner membrane RND transporter of Pseudomonas aeruginosa; called native; One trimer in each nanodisc (POPC, MSP1E3D1); also called RND; source: E. coli C43ΔacrB, purified (HisTrap HP, gel filtration Superose 6), reconstituted into POPC/MSP1E3D1 nanodiscs

In series [1] the target is B2. The experiment in a line: native gel or EMSA; native PAGE, 4–15% gradient gel, Tris-Glycine running buffer, silver stained; nanodisc-reconstituted MexB and OprM mixed 1:1, with or without lipidated MexA (1:1:10 molar ratio). To be noted: both partners purified. Background: In EMSA bound probe runs differently from free probe, usually more slowly.
In series [2] the target is B3. The series is described as above. To be noted: both partners purified.
Series [3] concerns the molecule itself. The experiment in a line: negative-stain electron microscopy, single-particle analysis; nanodisc-reconstituted RND and OMF mixed with lipidated MFP (1:1:10, or SEC-purified complex), stained with 2% uranyl acetate on carbon-coated grids; reference-free two-dimensional class averages (SPIDER).

B1: lipidated MexA (natural protein)
chain: CGKSEAPPPAQTPEVGIVTLEAQTVTLNTELPGRTNAFRIAEVRPQVNGIILKRLFKEGSDVKAGQQLYQIDPATYEADYQSAQANLASTQEQAQRYKLLVADQAVSKQQYADANAAYLQSKAAVEQARINLRYTKVLSPISGRIGRSAVTEGALVTNGQANAMATVQQLDPIYVDVTQPSTALLRLRRELASGQLERAGDNAAKVSLKLEDGSQYPLEGRLEFSEVSVDEGTGSVTIRAVFPNPNNELLPGMFVHAQLQEGVKQKAILAPQQGVTRDLKGQATALVVNAQNKVELRVIKADRVIGDKWLVTEGLNAGDKIITEGLQFVQPGVEVKTVPAKNVASAQKADAAPAKTDSKG
modifications: lipidated (palmitoylation of an N-terminal cysteinyl residue)
notes: MexA, periplasmic membrane fusion protein of Pseudomonas aeruginosa, native lipidated form, 39 kDa monomer; also called native lipid-modified MFP; source: E. coli C43ΔacrB, purified (HisTrap HP, gel filtration Superose 6), in 0.03% DDM
As to B1, the binding result in series [1] and in series [2] was “binds” in each case. Turning to B2, in series [3], the binding result is given as “binds”.

Consider B3, for which, in series [3], the binding result is “binds”.
